The results in this text go back to PMC4636054.

In this data set the target is LlaBIII (UniProt A0A0M3KL05 1-1578). As to the kind of experiment: X-ray crystallography.

B1: LlaBIII 28 bp DNA (dsDNA)
DNA 1: GCTCTAGCTAATAGACTGAGCCGAGGTG
DNA 2: CACCTCGGCTCAGTCTATTAGCTAGAGC
B1: the binding result is reported as “binds”.
